Laboratory results from the RNAGym collection of RNA variant scans (doi:10.1093/nar/gkz1192).

B1: CPEB3 Ribozyme (parent)
chain: UAACAGGGGGCCACAGCAGAAGCGUUCACGUCGCAGCCCCUGUCAGAUUCUGGUGAAUCUGCGAAUUCUGCUGUAUAUCUC

Variants of: B1
Assay: self-cleavage, relative activity (ratio to wild type); higher = more cleavage; in vitro, sequencing
Outline: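 Relative activity compares each variant's cleaved/total read fraction with that of the unmutated ribozyme. To get these fractions, barcoded CPEB3 ribozyme libraries from rounds of error-prone PCR were transcribed with T7 RNA polymerase for 5 hours at 37°C and then given 15 min of DNase I treatment before EDTA was added. The RNAs were reverse transcribed with template switching and sequenced on Illumina, and DNA sequencing linked barcodes to variants. A minimum of 5 reads applied, and three batches were averaged.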
Work on U1A C29U yielded a self-cleavage of 0.52.
With U1A G33A the self-cleavage was 0.28.
U1A U69C gave a self-cleavage of 0.61.
Variant U1A U69A has a self-cleavage of 0.54.
With U1A A28U the self-cleavage was 0.88.
U1A A21G showed a self-cleavage of 0.55.
With U1A A21U the self-cleavage was 0.27.
U1A A21C showed a self-cleavage of 0.28.
With U1A U78A the self-cleavage was 0.99.
U1A U78C showed a self-cleavage of 0.91.
In the case of U1C A28U, the self-cleavage is reported as 0.67.
Work on U1C A28G yielded a self-cleavage of 0.55.
With U1A U74C the self-cleavage was 1.18.
U1A U74A gave a self-cleavage of 1.25.
U1C A21G showed a self-cleavage of 0.24.
For U1C A21C, the self-cleavage was 0.35.
With U1C A21U the self-cleavage was 0.3.
U1A A35G gave a self-cleavage of 1.25.
With U1A A35U the self-cleavage was 0.49.
U1A G24A gave a self-cleavage of 0.25.
U1A A64G gave a self-cleavage of 0.84.
For U1A A64U, the self-cleavage was 0.28.
U1C showed a self-cleavage of 0.84.
Variant U1A has a self-cleavage of 0.98.
Work on U1A G7U yielded a self-cleavage of 0.3.
In the case of U1A G7A, the self-cleavage is reported as 0.1.
With U1A U25C the self-cleavage was 0.41.
Variant U1A U25A has a self-cleavage of 0.34.
U1C A13U gave a self-cleavage of 1.13.
In the case of U1C A13G, the self-cleavage is reported as 0.79.
With U1C A75U the self-cleavage was 1.05.
Variant U1C A75G has a self-cleavage of 0.79.
For U1A U66C, the self-cleavage was 0.4.
U1A U66A gave a self-cleavage of 0.42.
U1A G52A gave a self-cleavage of 1.1.
In the case of U1A C32G, the self-cleavage is reported as 0.09.
With U1A C32U the self-cleavage was 0.3.
In the case of U1C A5G, the self-cleavage is reported as 0.68.
U1C A5C gave a self-cleavage of 0.82.
U1C A5U gave a self-cleavage of 1.02.
Variant U1A C37A has a self-cleavage of 0.31.
Variant U1A C37G has a self-cleavage of 1.04.
U1A G63A gave a self-cleavage of 0.89.
In the case of U1C A18C, the self-cleavage is reported as 1.09.
In the case of U1C A18U, the self-cleavage is reported as 0.36.
In the case of U1C A18G, the self-cleavage is reported as 0.48.
In the case of U1A U54C, the self-cleavage is reported as 1.08.
U1A U54G gave a self-cleavage of 0.76.
Work on U1A U54A yielded a self-cleavage of 1.14.
U1A U41C showed a self-cleavage of 0.89.
For U1A U41G, the self-cleavage was 0.27.
In the case of U1A U41A, the self-cleavage is reported as 0.2.
Variant U1A C23G has a self-cleavage of 0.1.
Work on U1A C23U yielded a self-cleavage of 0.22.
U1A C11G showed a self-cleavage of 0.49.
U1A C11U gave a self-cleavage of 0.46.
U1C A35C showed a self-cleavage of 0.71.
U1C A35U showed a self-cleavage of 0.33.
U1C A35G showed a self-cleavage of 1.24.
U1A G16A showed a self-cleavage of 0.38.
U1A G8A gave a self-cleavage of 0.19.
For U1A A15U, the self-cleavage was 0.69.
In the case of U1A A15G, the self-cleavage is reported as 0.72.
In the case of U1A G10A, the self-cleavage is reported as 0.25.
With U1A G10C the self-cleavage was 0.36.
U1A G36C gave a self-cleavage of 0.09.
Variant U1A G36A has a self-cleavage of 0.29.
U1C A77G gave a self-cleavage of 0.91.
In the case of U1C A77U, the self-cleavage is reported as 0.97.
Variant U1A A65C has a self-cleavage of 0.12.
U1A A65G showed a self-cleavage of 0.48.
For U1A C81U, the self-cleavage was 1.11.
Variant U1A G73U has a self-cleavage of 1.44.
U1A G73A showed a self-cleavage of 1.21.
With U1C A2U the self-cleavage was 1.04.
For U1C A2G, the self-cleavage was 0.8.
In the case of U1C A2C, the self-cleavage is reported as 0.94.
For U1A U67C, the self-cleavage was 0.18.
U1A A57G gave a self-cleavage of 0.77.
Work on U1A C38U yielded a self-cleavage of 0.97.
Work on U1A C38G yielded a self-cleavage of 0.45.
Variant U1A C38A has a self-cleavage of 0.35.
With U1C A3U the self-cleavage was 0.83.
In the case of U1C A3G, the self-cleavage is reported as 0.9.
U1A A47U gave a self-cleavage of 0.78.
For U1A A47G, the self-cleavage was 1.01.
U1C C14U showed a self-cleavage of 1.07.
Work on U1A C50A yielded a self-cleavage of 0.47.
Work on U1C A64G yielded a self-cleavage of 0.8.
U1C A64U gave a self-cleavage of 0.26.
U1C A45G gave a self-cleavage of 0.81.
U1C A45U showed a self-cleavage of 0.39.
U1C A45C gave a self-cleavage of 0.16.
Variant U1A U80C has a self-cleavage of 1.14.
In the case of U1A G9C, the self-cleavage is reported as 0.1.
U1A G9A showed a self-cleavage of 0.28.
In the case of U1A A77U, the self-cleavage is reported as 1.05.
In the case of U1A A77G, the self-cleavage is reported as 1.12.
U1A U60C showed a self-cleavage of 0.35.
For U1A U60A, the self-cleavage was 0.56.
With U1A U31A the self-cleavage was 0.64.
U1A U31C showed a self-cleavage of 0.65.
With U1A G22A the self-cleavage was 0.23.
U1A G6A showed a self-cleavage of 0.27.
In the case of U1A G46A, the self-cleavage is reported as 0.43.
Variant U1A U51A has a self-cleavage of 0.95.
Variant U1A U51C has a self-cleavage of 0.92.
U1A C14A showed a self-cleavage of 1.17.
In the case of U1A U26C, the self-cleavage is reported as 0.47.
In the case of U1A U26A, the self-cleavage is reported as 1.02.
For U1C A56G, the self-cleavage was 0.73.
With U1C A56U the self-cleavage was 0.52.
For U1C A47U, the self-cleavage was 0.47.
With U1C A47G the self-cleavage was 0.9.
Work on U1A U43A yielded a self-cleavage of 1.08.
U1A U43C gave a self-cleavage of 0.58.
Variant U1A U43G has a self-cleavage of 0.54.
U1C A15U showed a self-cleavage of 0.55.
Variant U1C A15C has a self-cleavage of 0.62.
U1C A15G showed a self-cleavage of 0.6.
With U1A A2G the self-cleavage was 0.87.
Work on U1A A2U yielded a self-cleavage of 1.09.
Work on U1A U48C yielded a self-cleavage of 0.63.
With U1A A13G the self-cleavage was 0.8.
Variant U1A A13U has a self-cleavage of 1.16.
U1A A18C gave a self-cleavage of 0.53.
U1A A18G showed a self-cleavage of 0.57.
For U1A A18U, the self-cleavage was 0.41.
Work on U1A A75U yielded a self-cleavage of 1.14.
With U1A A75G the self-cleavage was 0.9.
U1A A5U showed a self-cleavage of 0.97.
Work on U1A A5G yielded a self-cleavage of 0.68.
With U1A G30A the self-cleavage was 0.11.
Variant U1A U58A has a self-cleavage of 0.29.
U1A U58C gave a self-cleavage of 0.66.
Variant U1C A20U has a self-cleavage of 0.29.
For U1C A20G, the self-cleavage was 0.59.
Work on U1C A57G yielded a self-cleavage of 0.85.
Variant U1A U49A has a self-cleavage of 0.58.
For U1A U49C, the self-cleavage was 0.52.
U1A A20U gave a self-cleavage of 0.32.
U1A A20G showed a self-cleavage of 0.72.
With U1A G61C the self-cleavage was 0.29.
In the case of U1A U76C, the self-cleavage is reported as 1.04.
Work on U1A C59U yielded a self-cleavage of 0.46.
With U1A C12U the self-cleavage was 1.2.
Work on U1A C12A yielded a self-cleavage of 1.14.
U1A C12G gave a self-cleavage of 0.43.
In the case of U1A C27A, the self-cleavage is reported as 0.22.
In the case of U1C C11U, the self-cleavage is reported as 0.36.
With U1C C11G the self-cleavage was 0.43.
Work on U1A A3C yielded a self-cleavage of 1.09.
For U1A A3U, the self-cleavage was 1.2.
With U1A A3G the self-cleavage was 1.1.
With U1A A56U the self-cleavage was 0.61.
U1A A56G showed a self-cleavage of 0.71.
U1A U72C showed a self-cleavage of 1.02.
Variant U1A U72G has a self-cleavage of 0.75.
Work on U1A U72A yielded a self-cleavage of 0.55.
With U1A A45G the self-cleavage was 0.75.
For U1A A45U, the self-cleavage was 0.41.
With U1C A65G the self-cleavage was 0.42.
With U1C A65U the self-cleavage was 0.31.
For U1A C68A, the self-cleavage was 0.41.
In the case of U1A C68U, the self-cleavage is reported as 0.82.
With U1C C12U the self-cleavage was 1.22.
For U1C C23A, the self-cleavage was 0.22.
